Measured values taken from the DeepSol protein solubility set.

Assay: soluble on expression in E. coli; label from the status in PepcDB or PDB records

Sequence	soluble on expression in E. coli
MKTNTIITIGRQFGSAGREIGYQIADYFGIKLYDKEMLSRAAKESGICEEIFETHDEKPTNSFLYSLVMDTYSMGYSGGSYSDMPINHKVFLAQFDAIKKIADEGPCILVGRCADYALESYDNVVNVFIHADLDARIRRIARIYNLTDAKAKDMIIKTDKKRASYYNYYTNKKWSDSESYELCLSSSELGIEGTAKAIEQYVMLKEQIQRDDKIL	not soluble
MKTSEWIDISQPLNNNIATWPGDTPFSYEVSWSKEESGSVNVGKLTMSIHTGTHIDAPFHFDNDGKKVLDLDVQVYVGPARIIDVSNLESIGKKELESFHLEGVERLLLRTSSHGKAEEFPEVIPHLRADIASFLSEKGIRLIGVDVPSVDPLDDKELAAHHQLFKHGIHILENVVLDHVADGDYELIALPLALTDADGSPVRAVIRPILEHHHHHH	soluble
MKTSSIIEFKNPISKYQHDVDDGLHSDYKVINNEFIHKSIRILENYQFIQSLSHADKSTLIQHLKIRKYYHNQTVYNQNDPCTDINILLEGALKLGWSTSQGKYHTDIFVPSGTLINIVPIVTGQPLLHDHIAQGRTVIANLPGQLFVDVIRNNADALFMVLKLICVRTQLNREQNFIYSTETLQTRLAKKLVFLVDYHSYQDKDKILLNLKLSQENLAELLQTSRQSINKELAALSNQNIIEVKYNQIFILDFEKLSNIAQTHQFHSTTKFL	not soluble
MKVAVTGRPGVGKTTLCLKVHESLKDKMTVGGFITKEVRRDGVRVGFKLVDLSSGNEEWLARVGEGKARVGKYAVNVEGLEEFLDSVRTDADLVIIDEVGPMELKSRKFVRFVENLMGRERLLFTIHLKSRHRLLDRIRREFKVYVIDESNRNRIAEEITRILEGLEHHHHHH	soluble
MKVDSLHNLSYKEEFEGDMKRSTAAYKKVSEDASIGSTYIADISEVGSQISGEPVQRIKIPEHRQILKRSLIKPVIMAGGNGKRLWPLASKDKPKQFKKILSDLTLLQQTLNRNKFLGQPTIITSKKYESITKEQATEIDVEIALITEPLQKNTAVCAIITALSATALGFDIVVLLPSNHHIADDINYLNTINKALHYVNECGICTIFL	not soluble
MKVERVERVEDIDFEGLLKEGYTCFFFDFDNTLVPWKESKLEESKRRLLIELAKKARVVVVSNGKPRKVDLPVMFIWRAGKPFSLKLWRFLKKEKIDPKRCVMIGDQIFTDVLTGKIFGFRVIKVEPISAKEFFGTKILRFFEKILEGKVR	not soluble
MKVFNRPILFDIVSRGSPDGLEGLLSFLLTHKKRLTDEEFREPSTGKTCLPKALLNLSAGRNDTIPILLDIAEKTGNMREFINSPFRDVYYRGQTALHIAIERRCKHYVELLVEKGADVHAQARGRFFQPKDEGGYFYFGELPLSLAACTNQPHIVHYLTENGHKQADLRRQDSRGNTVLHALVAIADNTRENTKFVTKMYDLLLIKCAKLFPDTNLEALLNNDGLSPLMMAAKTGKIGIFQHIIRREIADAAAHHHHHH	soluble
MKVGIIGKQGRLGRVLQAILDENGFDVVENNWDIAFLSVPIGAAISYIEKYDGPFIEVSSVKTPFKKYAGRIVSIHPLFGPASYKDGVHRTVLFIKDISMPEYRDLIAEMFRGYEIVDTTADVHDKEMAKSLALPYAVAIISKNIDTAFRTKSFDTFKGIVRILENENEEVMLDTINKNPYAQYMYDIVKNLGMVIQMAGDPLEHHHHHH	not soluble
MKVIIFGGSGFLGQQIAKILVQRQHQVISVSRHGKPATLSASWSHQVQWVCSDVTHDTNWQEQVQRADWVIDTVGILFENPRKKKTYQRLILTPVKKISSFLAQQKKPAKFLFISANTVPFPLRKYMDAKLAAEELIHQEVAEAVIFYPSLLVGQERTGTILFSKCIYFFKKIPFLKNLFIGYDPVPVAEMAQEIVHVLEGGNSIYTHRRTR	not soluble
MKVILVNGSPHKDGCTFTALEEVAKALNEEGIDTEFFHLGTKPLNGCIACGHCRKHQRCVFPDSVNEFLDLAQEADGFIFGSPVHYAAAGGAITSFLDRVFYTDSGSGKQAFYLKPAAAVVSARRAGTTASLDQLNRYFTIKEMPIISSKYWNMVHGNTPEEVRKDEEGLQIMRTLGRNMAWFLKCKEAGIRAGIPFPSQEEGLRTNFIRLEHHHHHH	soluble
MKVLKPGLLTTVQDIGRTGYQKYGVLASGAMDTVSLRIANLLIGNGENEAGLEITMMGPGPSFHFSKQTLIAVTGADFTLRINDEEAPLWKPVLIKENSTVSFGPCKLGSRAYLAAAGGIEVPAVMESKSTYVRGSIGGLHGRALQKEDELNIGEMSALSQTILSRLSSQLAHTVIGSTDVVSQPWEISVIEDESRHSSAGGISICLLHSRIKNAFSEEAFRVTPQSDRMGYRLKGEPLDLTAPLEMVSAAVSFGAAQMPPAGKPYYPCLQDRQDDWPAIRGIAHIISADLPIVSQIMPGEHVQFEPVSLQEAEALAVEREQHIKELKTRMKMEWLT	not soluble
MKVLTVFGTRPEAIKMAPLVHALEKDPHFEAKVCVTAQHREMLDQVLTLFSIVPDYDLNIMQPGQGLTEITCRILEGLKPILADFKPDVVLVHGDTTTTIATSLAAFYQRIPVGHVEAGLRTGDLYSPWPEEANRTLTGHLAMYHFAPTENSRQNLLRENIPDERIFVTGNTVIDALIWVRDRVLTSDTLQAELAEQYPFLNANKKMILVTGHRRESFGQGFEHICQALAEIAAANQNVQIVYPVHLNPNVSEPVNRILGHVENVVLIEPQDYLPFVWLMNHAWLILTDSGGIQEEAPSLGKPVLVMRETTERPEAITAGTVRLIGTDSRRIVAEVMRLLHDENEYQTMSRAHNPYGDGQSCARILQALKSYRVSL	not soluble
MKVNKFITIYKDIAQQIEGGRWKAEEILPSEHELTAQYGTSRETVRKALHMLAQNGYIQKIRGKGSVVLNREKMQFPVSGLVSFKELAQTLGKETKTTVHKFGLEPPSELIQKQLRANLDDDIWEVIRSRKIDGEHVILDKDYFFRKHVPHLTKEICENSIYEYIEGELGLSISYAQKEIVAEPCTDEDRELLDLRGYDHMVVVRNYVFLEDTSLFQYTESRHRLDKFRFVDFARRGK	soluble
MKVPPKKKFLGNSEHPGDLLTQTSKCECQLASVYGNGRVPVKNKKATNAYFQQSIPSWSDTLRMTRQNKKQRGRRRWKKNRKKRRVKTG	not soluble
MKVTAMDIYKLLPKTNCGKCGEASCMAFAAKLSQKEAELSACPQLKGADFEKLANMLAPAVREIKIGTGDRAVTIGGDEVLYRYELTYYNPTAVAVDLSDDMDDSAFDQKLVKIKNLEFERTGEILKLNAVALRNKSGDAEKFKKAAEKLKDSEIPVILCSFDPKAMDAALDVIGSKRPLIYAATENNIDEMSELALKHNCPISLFVPNDLEKMKQLSRKLRESGVKDIVLDPGTYIGEAIGDTMDNFIMIRRLAVEEKDDDFRFPILAVPAVCWINPEEDEILTKMKEATTAAALMNRYADVMILHGVDIWEMMPVLTLRQSLYTDPRKPQSVEAKIYEFGTVDENSPVIMTTNFALTYYTVAGDLKSGKVNCYLLVLDTNGKAVDVAVAGGQFNGKAAAELMKETGIEKLVNHKKLIIPGLAASVSGDIEDQSGWEVIVGTRDSSEVPAFLAKIW	not soluble
MKVTKSEIVISAVKPEQYPEGGLPEIALAGRSNVGKSSFINSLINRKNLARTSSKPGKTQTLNFYIINDELHFVDVPGYGFAKVSKSEREAWGRMIETYITTREELKAVVQIVDLRHAPSNDDVQMYEFLKYYGIPVIVIATKADKIPKGKWDKHAKVVRQTLNIDPEDELILFSSETKKGKDEAWGAIKKMINR	soluble
MKVVQRKIKKSGKDRKRIGRGGSAYILDKRRITAVQNMKREAEKEKLRERFAAAANMPKDVVLGASVVTVIGNGEISIENYRGILEYTGELIRVQTKKGQIQVHGKGLQIEYYLNDEMKITGKIHTLEYEMLEHHHHHH	soluble
MKYFFETRLGETRYRLADGSLLCKDVPIGRTGKQLYGADDLPKLKPDKFVEIVVTRSPEQVFHPATLASFEGMSITILHPEDENGNVRLVNPENWKVLAVGHLQNVRRGTGEQSDLMLADLIVKDESAIQLIEDGLREVSCGYDAEYEQTEPGKAEQVDITGNHVALVPKGRAGNRCAIGDRDTMANQKKNWWNRMRAAIKTGDADTMNELVESAPASVTGDEGDLPQGVNLNINLSPQQPLPDKAPEMGGDPTGDSDDDLKTLLKALLAKLERNATGDNDNKPDDNPTGDGEDDEEETTITGDSAWRAEVIVPGIDLSRKMKPTAFKREVLASADKTLVRQIVGDADIRKLPKQSVDMAFNAVSEVAKGRNTRATTGDAQRLNMGMTSIASLNKQNAEFWANRKG	not soluble
MKYMVVSSPIQEVLRLHKYIEISTTTITVKITNKMSSPVIGITFGNTSSSIAYINPKNDVDVIANPDGERAIPSALSYVGEDEYHGGQALQQLIRNPKNTIINFRDFIGLPFDKCDVSKCANGAPAVEVDGKVGFVISRGEGKEEKLTVDEVVSRHLNRLKLAAEDYIGSAVKEAVLTVPTNFSEEQKTALKASAAKIGLQIVQFINEPSAALLAHAEQFPFEKDVNVVVADFGGIRSDAAAIAVRNGIFTILATAHDLSLGGDNLDTELVEYFASEFQKKYQANPRKNARSLAKLKANSSITKKTLSNATSATISIDSLADGFDYHASINRMRYELVANKVFAQFSSFVDSVIAKAELDPLDIDAVLLTGGVSFTPKLTTNLEYTLPESVEILGPQNKNASNNPNELAASGAALQARLISDYDADELAEALQPVIVNTPHLKKPIGLIGAKGEFHPVLLAETSFPVQKKLTLKQAKGDFLIGVYEGDHHIEEKTLEPIPKEENAEEDDESEWSDDEPEVVREKLYTLGTKLMELGIK	not soluble
MKYNATKAISIAPPTIPTVNPTINEVFSFELLELELEEEEDKLLSCESDCFAQYVDGHLSHVNEVITQYSPEAQTGHDAVESQTTHPSLPLVAEVEEVAVLDKDELAEALEELDIFCLIFRKRT	soluble
MKYRITTWLAAALMLSSLHATAASLSDIQVSNGDQQARITLSFVGEPEYSFTPQGKRLVALDIKQTGVLQGLPLQFSGSNLVKSIRAGTPQDTQTLRLLVDLTEDGKTRAVKQQNGANYTVVFTINAEAPPPPVVVKRADPPPVMPSRTTTPGRNPFSSSGHERQTVMTSSQPAMTNNQTVTRPAARTVSADDKVIIAIDAGHGGQDPGAIGPNGTKEKNVTIAIARKLRALLNADPQFKPVLTRDGDYFISVMGRSEVARKQNANFLVSIHADAAPNRDATGASVWVLSNRRANSEMAGWLEQHEKQSELLGGAGDVLANSQADPYLSQAVLDLQFGHSQRVGYDVATNVLSQLQRIGNLHKRRPEHASLGVLRSPDIPSILVETGFISNNGEERLLGSDDYQEQIAEAIYNGLRNYFMQHPLQSAPRGEAAQTASAAAPGGMLIN	not soluble
MKYSSFLKQAEENLVPIFSEIDAKVKENLYKVIEAFRHHRVGVQHFAGVSGYGHDDLGRDTLDGVFAQVMGAESAAVRVQFVSGTHAIACALYGILRPGDELLSAVGSPYDTLEEVIGLRGSCQGSLADFNISYRQLPLTAAGTVDWQGLETAVRPETRLVLIQRSCGYSWRPSLAIADIARIIEIVKAQNPRTLCFVDNCYGEFIETVEPTAIGVDLMAGSLIKNPGGTIVTAGGYLAGKEEWVEAGAYRLTAPGIGLEHHHHHH	not soluble
MLAARGFFKSTRISNRFFAKKSVKNLTNDDVDVLTNPSDEYVDSFMKYHGNGRAVFKREDLAQWRDSFPDYKFKVISLKGAPRVIATAHLCTFRPIDPSINKSIMFMGFGWIDPGFRSPGTAKLQNDMCRVEMDREDDNIVSQINQPAKNFWHKLSKRKEFLDLGHKAGDVGYKTFYSAHDVVLPENLDLSGITVKNAREVPKRDIINYDQTIHPYHREKYIISHMYDRDGFGKVAYDEEGNVIGIGQAVIYENRKDCNLGPIYAENTRVAQAMFAEILKDIKASEKTVVSFEVRSGQLNKDSFCWLTPFLTHKPTRSHVCNLVYTDCVPENIDFSKVYSPTHAQLFMV	not soluble
